Patent US7153654

Molecular target: anti-hCG monoclonal antibody from Organon Teknika
Assay: competition: hCG displaces FpepT (5.5×10^-8 M) from anti-hCG Mab (4.5×10^-8 M), fluorescence EX=561 nm EM=590 nm; K1 of the fit

Kd: 490 pM
Substance: human chorionic gonadotrophin (hCG) (from UniProt P01215 25-116; P0DN86 21-165) (ligand)
